Test results published in patent publication US20200339702A1 (ULTRAHUMAN THIRTEEN, published 2020).
Substitutions are numbered along the chain they refer to.

T1: rhesus ERBB3 on transiently transfected HEK-293 cells (rhesus monkey (Macaca mulatta), UniProt P21860 20-1342 (human entry))
T1 construct: also called rhesus ERBB3+ HEK-293 cells
T1 chain: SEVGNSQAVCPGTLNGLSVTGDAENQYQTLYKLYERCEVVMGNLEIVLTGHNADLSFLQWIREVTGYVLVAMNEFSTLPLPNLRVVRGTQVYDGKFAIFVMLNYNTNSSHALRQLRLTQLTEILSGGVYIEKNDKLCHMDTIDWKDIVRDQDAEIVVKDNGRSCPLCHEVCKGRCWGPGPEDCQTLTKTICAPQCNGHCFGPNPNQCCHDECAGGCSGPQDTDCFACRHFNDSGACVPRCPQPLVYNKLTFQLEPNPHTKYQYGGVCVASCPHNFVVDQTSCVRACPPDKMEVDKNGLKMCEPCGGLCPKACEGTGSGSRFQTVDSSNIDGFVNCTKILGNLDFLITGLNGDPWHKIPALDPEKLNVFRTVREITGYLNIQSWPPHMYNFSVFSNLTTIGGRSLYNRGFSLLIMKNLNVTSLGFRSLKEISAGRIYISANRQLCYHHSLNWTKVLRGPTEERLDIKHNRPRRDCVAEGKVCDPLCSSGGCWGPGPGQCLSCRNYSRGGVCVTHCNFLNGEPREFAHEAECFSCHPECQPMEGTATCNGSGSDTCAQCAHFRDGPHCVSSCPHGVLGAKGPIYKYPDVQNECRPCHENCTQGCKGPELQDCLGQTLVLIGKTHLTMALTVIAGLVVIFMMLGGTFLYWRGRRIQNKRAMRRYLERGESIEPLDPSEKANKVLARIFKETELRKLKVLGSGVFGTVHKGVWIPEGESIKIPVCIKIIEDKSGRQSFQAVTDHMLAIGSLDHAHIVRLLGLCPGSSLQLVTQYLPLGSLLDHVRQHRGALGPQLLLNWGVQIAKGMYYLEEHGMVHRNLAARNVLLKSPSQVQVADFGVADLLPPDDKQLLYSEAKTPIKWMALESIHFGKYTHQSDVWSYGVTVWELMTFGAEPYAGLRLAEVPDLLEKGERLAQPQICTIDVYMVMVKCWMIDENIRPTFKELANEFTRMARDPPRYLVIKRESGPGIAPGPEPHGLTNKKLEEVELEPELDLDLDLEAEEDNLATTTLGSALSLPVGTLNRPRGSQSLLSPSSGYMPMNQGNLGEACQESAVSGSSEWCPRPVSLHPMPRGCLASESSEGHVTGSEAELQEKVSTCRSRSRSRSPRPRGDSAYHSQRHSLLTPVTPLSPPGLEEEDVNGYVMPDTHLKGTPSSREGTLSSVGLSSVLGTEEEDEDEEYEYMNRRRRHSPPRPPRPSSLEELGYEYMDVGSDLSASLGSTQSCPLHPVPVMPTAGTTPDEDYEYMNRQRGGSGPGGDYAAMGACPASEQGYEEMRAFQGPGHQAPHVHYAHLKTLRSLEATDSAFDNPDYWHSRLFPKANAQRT

T2: rhesus monkey ERBB3 human Fc tagged recombinant protein (rhesus monkey (Macaca mulatta), UniProt P21860 20-643 (human entry), limits assumed)
T2 construct: also called rhesus ERBB3-Fc; rhERBB3
T2 chain: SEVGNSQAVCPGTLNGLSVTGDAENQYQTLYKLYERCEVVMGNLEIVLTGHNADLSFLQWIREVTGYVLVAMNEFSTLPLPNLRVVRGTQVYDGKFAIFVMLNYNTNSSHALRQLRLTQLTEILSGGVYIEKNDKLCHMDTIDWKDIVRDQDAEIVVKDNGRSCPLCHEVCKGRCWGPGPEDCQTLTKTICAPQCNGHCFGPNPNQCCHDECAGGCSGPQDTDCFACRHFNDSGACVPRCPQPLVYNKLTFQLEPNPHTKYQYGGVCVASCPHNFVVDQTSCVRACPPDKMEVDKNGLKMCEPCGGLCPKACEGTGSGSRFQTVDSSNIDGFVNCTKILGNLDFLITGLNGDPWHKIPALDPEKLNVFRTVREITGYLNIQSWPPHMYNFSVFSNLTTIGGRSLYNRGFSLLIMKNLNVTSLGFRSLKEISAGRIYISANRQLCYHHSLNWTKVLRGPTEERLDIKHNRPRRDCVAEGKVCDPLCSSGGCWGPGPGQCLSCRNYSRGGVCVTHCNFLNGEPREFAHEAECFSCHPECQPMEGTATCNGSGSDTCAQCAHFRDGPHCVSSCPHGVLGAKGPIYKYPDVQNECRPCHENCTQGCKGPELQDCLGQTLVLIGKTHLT

B1: 15G11-DI2 IgG1 (antibody, V domains shown)
VH: QVQLVESGGGLVKPGGSLRLSCAASGFTFSDYGMSWVRQAPGKGLEWVSTISDSGSYTYYPDSVKGRFTISRDNAKNSLYLQMNSLRAEDTAVYYCARELGDYDGFDYWGQGTLVTVSS
VL: DIQMTQSPSSLSASVGDRVTITCRASQEISTYLSWYQQKPGKAPKLLIYAASSLDTGVPSRFSGSGSGTDFTLTISSLQPEDFATYYCLQYDSTPYTFGGGTKVEIK
notes: Human IgG1 format, human Ckappa
B2: 15G11-DI7 IgG1 (antibody, V domains shown)
VH: B1 VH with G33S, V37I, S56T, L100W, Y108F
VL: B1 VL with T31S, T94S
notes: Human IgG1 format, human Ckappa; also called 15G11-D17
B3: 15G11-DI9 IgG1 (antibody, V domains shown)
VH: B1 VH with G33S, V37I, S56T, L100W, Y108F
VL: B1 VL with S53T, D55Q, T56S, T94S, Y96L
notes: as for B1
B4: 15G11-DI8 IgG1 (antibody, V domains shown)
VH: B1 VH with G33S, V37I, S56T, L100W, Y108F
VL: B1 VL with T94S
notes: as for B1
B5: 15G11-DI3 IgG1 (antibody, V domains shown)
VH: B1 VH
VL: B1 VL with T31S, T94S
notes: as for B1
B6: 15G11-DI4 IgG1 (antibody, V domains shown)
VH: B1 VH
VL: B1 VL with T94S
notes: as for B1
B7: 15G11-DI10 IgG1 (antibody, V domains shown)
VH: B1 VH
VL: B1 VL with T31S, I48A, T56S
notes: as for B1

target: T3, human ERBB3 on transiently transfected HEK-293 cells (human, UniProt P21860 20-1342); experiment: flow cytometry, human ERBB3-transfected HEK-293 cells, IgG1 titrated
T3 construct: also called human ERBB3+ HEK-293 cells
Procedure: (§1) Purified IgGs were tested in FACs for binding to human and rhesus monkey ERBB3 expressed on transiently transfected HEK-293 cells and HEK-293 wild-type cells. The IgG samples were titrated in three-fold serial dilutions starting at 500 nM to 0.008 nM. Binding of IgGs was detected with a mouse anti-human IgG conjugated to FITC. Results were analyzed by examining the Mean Fluorescence Intensity (MFI) of 10000 cells per sample in the BL-1 channel detector of a flow cytometer (Attune™ NxT Acoustic Focusing Cytometer, Invitrogen/ThermoFisher Scientific).

binding result	Binder
binds	B1
binds	B2
binds	B3
binds	B4
binds	B5
binds	B6
binds	B7

Target: T1, rhesus ERBB3 on transiently transfected …
Experiment: flow cytometry, rhesus ERBB3-transfected HEK-293 cells, IgG1 titrated
Procedure: as §1

binding result	Binder
binds	B1
binds	B2
binds	B3
binds	B4
binds	B5
binds	B6
binds	B7

target: T4, human insulin (human, UniProt P01308 25-54; P01308 90-110, limits assumed); experiment: development risk ELISA on insulin
T4 construct: Off-target protein in the development risk (polyreactivity) ELISA
T4 sequence (P01308 25-54 limits assumed, chain 1 of 2): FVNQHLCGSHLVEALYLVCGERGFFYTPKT
T4 sequence (P01308 90-110 limits assumed, chain 2 of 2): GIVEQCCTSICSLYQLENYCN

binding score	Binder
< 10	B1
< 10	B2
< 10	B3
< 10	B4
< 10	B5
< 10	B6

target: T5, human ERBB3 human Fc tagged recombinant protein (human, UniProt P21860 20-643); experiment: direct binding ELISA on coated human ERBB3-Fc, IgG1 titrated
T5 construct: also called human ERBB3-Fc; huERBB3
Procedure: (§2) Binding and cross-reactivity of the lead panel to the recombinant proteins was initially assessed by binding ELISA. The human ERBB3 human Fc tagged recombinant protein and the rhesus monkey ERBB3 human Fc tagged recombinant protein were coated to the surface of MaxiSorp™ flat-bottom 96 well plate at 1 μg/ml. The purified IgG samples were titrated in two fold serial dilutions starting from 500 nM to 0.008 nM and allowed to bind to the coated antigens. The Fabs were detected using mouse anti-c-myc antibody followed by donkey anti-mouse IgG conjugated to horseradish peroxidase. The IgGs were detected using the mouse anti-human IgG conjugated to horseradish peroxidase. Binding signals were visualized with 3,3′,5,5′-Tetramethylbenzidine Substrate Solution (TMB) and the absorbance measured at 450 nm.

binding result	Binder
binds	B1
binds	B2
binds	B3
binds	B4
binds	B5
binds	B6
binds	B7

target: T6, human ERBB3 His tagged, monomeric (human, UniProt P21860 20-643, biotinylated in the Alphascreen assays (sites not given)); experiment: Alphascreen competition in solution, competitor h24C05 IgG1, biotinylated human ERBB3-His
T6 construct: Used unbiotinylated as Biacore analyte and biotinylated in Alphascreen; treated as one molecule; also called human ERBB3-His (Acrobiosystems); biotinylated monomeric human ERBB3

binding result	Binder
binds	B1
binds	B2
binds	B3
binds	B4
binds	B5
binds	B6
binds	B7

Target: T2, rhesus monkey ERBB3 human Fc tagged …
Experiment: direct binding ELISA on coated rhesus ERBB3-Fc, IgG1 titrated
Procedure: as §2

binding result	Binder
binds	B1
binds	B2
binds	B3
binds	B4
binds	B5
binds	B6
binds	B7
